T1: B3GNT2 (Homo sapiens, UniProt Q9NY97)
T1 construct: The respective ORFs of candidate genes [CD274 (NM_014143), MCL1 (NM_021960), JUNB (NM_002229), and B3GNT2 (NM_006577)] were synthesized; expressed in transfected cells; host or cells: A375 melanoma cells (lentiviral ORF overexpression)
T1 sequence (Q9NY97 1-397): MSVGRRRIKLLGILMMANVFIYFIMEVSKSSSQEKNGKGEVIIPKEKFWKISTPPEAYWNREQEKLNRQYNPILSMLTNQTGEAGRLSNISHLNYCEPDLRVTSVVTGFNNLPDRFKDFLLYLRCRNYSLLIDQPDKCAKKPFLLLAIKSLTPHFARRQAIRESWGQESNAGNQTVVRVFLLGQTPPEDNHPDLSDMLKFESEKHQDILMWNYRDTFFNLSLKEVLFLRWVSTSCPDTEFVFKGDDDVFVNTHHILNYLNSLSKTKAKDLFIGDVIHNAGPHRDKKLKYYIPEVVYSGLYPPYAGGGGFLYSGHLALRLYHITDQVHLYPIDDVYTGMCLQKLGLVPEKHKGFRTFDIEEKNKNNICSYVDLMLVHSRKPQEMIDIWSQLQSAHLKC


Target: T1, B3GNT2
Assay: Co-IP of FLAG-tagged B3GNT2 followed by mass spectrometry
Type: cell-based
Set-up: C-term IgG / C-term flag: unit not given here
Outline: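 FLAG-tagged B3GNT2 immunoprecipitated from cell lysate (HEPES, 1% Triton X-100, 150 mM NaCl) with anti-FLAG versus […], overnight at 4° C, then captured on Protein A/G magnetic beads for 4 h. Two biological replicates per condition. Peptides fractionated and analyzed by nano-LC on an Orbitrap Elite in data-dependent mode.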

[1] = Co-IP followed by mass spectrometry of B3GNT2, C-term tag, FLAG pull-down
[2] = Co-IP followed by mass spectrometry of B3GNT2, C-term tag, IgG pull-down
[3] = Co-IP followed by mass spectrometry of B3GNT2, N-term tag, FLAG pull-down
[4] = Co-IP followed by mass spectrometry of B3GNT2, N-term tag, IgG pull-down

| C-term flag (Co-IP with FLAG antibody, C-terminally FLAG-tagged B3GNT2, mass spectrometry count, unit not given) | N-term FLAG (Co-IP with FLAG antibody, N-terminally FLAG-tagged B3GNT2, mass spectrometry count, unit not given) | C-term IgG (Co-IP with IgG control antibody, C-terminally FLAG-tagged B3GNT2, mass spectrometry count, unit not given) | N-term IgG (Co-IP with IgG control antibody, N-terminally FLAG-tagged B3GNT2, mass spectrometry count, unit not given) | C-term flag [1] | C-term IgG [2] | N-term FLAG [3] | N-term IgG [4] | Molecule |
| --- | --- | --- | --- | --- | --- | --- | --- | --- |
|  |  |  |  | 7 | 4 | 4 | 4 | SYNPO (protein, UniProt Q8N3V7 1-929, looked up) Synaptopodin: MLGPHLPPPPLAPSEGRPTPCAFQIPDGSYRCLALEAEESSGEEGLQGEVGPTDLEEDEGVSRSGDDSACRVTQGTPQLPKALGIQPPSCSREEQGASQHDDRASQDWDVVKAGQMMTASPSPGPGPRVAQKPALGRSTSLTEKDLKEAKARSQQIAAQLTTPPSSNSRGVQLFNRRRQRVNEFTLESHGQRGQKPSQESLRVLPSSLPGHAPGLSLSSTSLPEPGPPRHPSPQSPDRGVPGHSMEGYSEEASLLRHLEKVASEEEEVPLVVYLKENAALLTANGLHLSQNREAQQSSPAPPPAEVHSPAADVNQNLASPSATLTTPTSNSSHNPPATDVNQNPPATVVPQSLPLSSIQQNSSEAQLPSNGTGPASKPSTLCADGQPQAPAEEVRCSTLLIDKVSTPATTTSTFSREATLIPSSRPPASDFMSSSLLIDIQPNTLVVSADQEMSGRAAATTPTKVYSEVHFTLAKPPSVVNRTARPFGIQAPGGTSQMERSPMLERRHFGEKAPAPQPPSLPDRSPRPQRHIMSRSPMVERRMMGQRSPASERRPLGNFTAPPTYTETLSTAPLASWVRSPPSYSVLYPSSDPKSSHLKGQAVPASKTGILEESMARRGSRKSMFTFVEKPKVTPNPDLLDLVQTADEKRRQRDQGEVGVEEEPFALGAEASNFQQEPAPRDRASPAAAEEVVPEWASCLKSPRIQAKPKPKPNQNLSEASGKGAELYARRQSRMEKYVIESSSHTPELARCPSPTMSLPSSWKYPTNAPGAFRVASRSPARTPPASLYHGYLPENGVLRPEPTKQPPYQLRPSLFVLSPIKEPAKVSPRAASPAKPSSLDLVPNLPKGALPPSPALPRPSRSSPGLYTSPGQDSLQPTAVSPPYGGDISPVSPSRAWSPRAKQAPRPSFSTRNAGIEAQVWKPSFCFK |
|  |  |  |  | 9 | 2 | 10 | 3 | SERPINB3 (protein) MNSLSEANTKFMFDLFQQFRKSKENNIFYSPISITSALGMVLLGAKDNTAQQIKKVLHFDQVTENTTGKAATYHVDRSGNVHHQFQKLLTEFNKSTDAYELKIANKLFGEKTYLFLQEYLDAIKKFYQTSVESVDFANAPEESRKKINSWVESQTNEKIKNLIPEGNIGSNTTLVLVNAIYFKGQWEKKFNKEDTKEEKFWPNKNTYKSIQMMRQYTSFHFASLEDVQAKVLEIPYKGKDLSMIVLLPNEIDGLQKLEEKLTAEKLMEWTSLQNMRETRVDLHLPRFKVEESYDLKDTLRTMGMVDIFNGDADLSGMTGSRGLVLSGVLHKAFVEVTEEGAEAAAATAVVGFGSSPTSTNEEFHCNHPFLFFIRQNKTNSILFYGRFSSP |
|  |  |  |  | 8 | 10 | 17 | 9 | TGM1 (protein) MMDGPRSDVGRWGGNPLQPPTTPSPEPEPEPDGRSRRGGGRSFWARCCGCCSCRNAADDDWGPEPSDSRGRGSSSGTRRPGSRGSDSRRPVSRGSGVNAAGDGTIREGMLVVNGVDLLSSRSDQNRREHHTDEYEYDELIVRRGQPFHMLLLLSRTYESSDRITLELLIGNNPEVGKGTHVIIPVGKGGSGGWKAQVVKASGQNLNLRVHTSPNAIIGKFQFTVRTQSDAGEFQLPFDPRNEIYILFNPWCPEDIVYVDHEDWRQEYVLNESGRIYYGTEAQIGERTWNYGQFDHGVLDACLYILDRRGMPYGGRGDPVNVSRVISAMVNSLDDNGVLIGNWSGDYSRGTNPSAWVGSVEILLSYLRTGYSVPYGQCWVFAGVTTTVLRCLGLATRTVTNFNSAHDTDTSLTMDIYFDENMKPLEHLNHDSVWNFHVWNDCWMKRPDLPSGFDGWQVVDATPQETSSGIFCCGPCSVESIKNGLVYMKYDTPFIFAEVNSDKVYWQRQDDGSFKIVYVEEKAIGTLIVTKAISSNMREDITYLYKHPEGSDAERKAVETAAAHGSKPNVYANRGSAEDVAMQVEAQDAVMGQDLMVSVMLINHSSSRRTVKLHLYLSVTFYTGVSGTIFKETKKEVELAPGASDRVTMPVAYKEYRPHLVDQGAMLLNVSGHVKESGQVLAKQHTFRLRTPDLSLTLLGAAVVGQECEVQIVFKNPLPVTLTNVVFRLEGSGLQRPKILNVGDIGGNETVTLRQSFVPVRPGPRQLIASLDSPQLSQVHGVIQVDVAPAPGDGGFFSDAGGDSHLGETIPMASRGGA |
|  |  |  |  | 4 | 2 | 5 | 4 | YTHDF2 (protein) SASSLLEQRPKGQGNKVQNGSVHQKDGLNDDDFEPYLSPQARPNNAYTAMSDSYLPSYYSPSIGFSYSLGEAAWSTGGDTAMPYLTSYGQLSNGEPHFLPDAMFGQPGALGSTPFLGQHGFNFFPSGIDFSAWGNNSSQGQSTQSSGYSSNYAYAPSSLGGAMIDGQSAFANETLNKAPGMNTIDQGMAALKLGSTEVASNVPKVVGSAVGSGSITSNIVASNSLPPATIAPPKPASWADIASKPAKQQPKLKTKNGIAGSSLPPPPIKHNMDIGTWDNKGPVAKAPSQALVQNIGQPTQGSPQPVGQQANNSPPVAQASVGQQTQPLPPPPPQPAQLSVQQQAAQPTRWVAPRNRGSGFGHNGVDGNGVGQSQAGSGSTPSEPHPVLEKLRSINNYNPKDFDWNLKHGRVFIIKSYSEDDIHRSIKYNIWCSTEHGNKRLDAAYRSMNGKGPVYLLFSVNGSGHFCGVAEMKSAVDYNTCAGVWSQDKWKGRFDVRWIFVKDVPNSQLRHIRLENNENKPVTNSRDTQEVPLEKAKQVLKIIASYKHTTSIFDDFSHYEKRQEEEESVKKERQGRGK |

More lines, now with the values behind:

| Molecule | C-term flag (Co-IP with FLAG antibody, C-terminally FLAG-tagged B3GNT2, mass spectrometry count, unit not given) | N-term FLAG (Co-IP with FLAG antibody, N-terminally FLAG-tagged B3GNT2, mass spectrometry count, unit not given) | C-term IgG (Co-IP with IgG control antibody, C-terminally FLAG-tagged B3GNT2, mass spectrometry count, unit not given) | N-term IgG (Co-IP with IgG control antibody, N-terminally FLAG-tagged B3GNT2, mass spectrometry count, unit not given) | C-term flag [1] | C-term IgG [2] | N-term FLAG [3] | N-term IgG [4] |
| --- | --- | --- | --- | --- | --- | --- | --- | --- |
| PHGDH (protein) AFANLRKVLISDSLDPCCRKILQDGGLQVVEKQNLSKEELIAELQDCEGLIVRSATKVTADVINAAEKLQVVGRAGTGVDNVDLEAATRKGILVMNTPNGNSLSAAELTCGMIMCLARQIPQATASMKDGKWERKKFMGTELNGKTLGILGLGRIGREVATRMQSFGMKTIGYDPIISPEVSASFGVQQLPLEEIWPLCDFITVHTPLLPSTTGLLNDNTFAQCKKGVRVVNCARGGIVDEGALLRALQSGQCAGAALDVFTEEPPRDRALVDHENVISCPHLGASTKEAQSRCGEEIAVQFVDMVKGKSLTGVVNAQALTSAFSPHTKPWIGLAEALGTLMRAWAGSPKGTIQVITQGTSLKNAGNCLSPAVIVGLLKEASKQADVNLVNAKLLVKEAGLNVTTSHSPAAPGEQGFGECLLAVALAGAPYQAVGLVQGTTPVLQGLNGAVFRPEVPLRRDLPLLLFRTQTSDPAMLPTMIGLLAEAGVRLLSYQTSLVSDGETWHVMGISSLLPSLEAWKQHVTEAFQFHF | 7 | 29 | 0 | 0 |  |  |  |  |
| HNRNPM (protein) AAGVEAAAEVAATEIKMEEESGAPGVPSGNGAPGPKGEGERPAQNEKRKEKNIKRGGNRFEPYANPTKRYRAFITNIPFDVKWQSLKDLVKEKVGEVTYVELLMDAEGKSRGCAVVEFKMEESMKKAAEVLNKHSLSGRPLKVKEDPDGEHARRAMQKVMATTGGMGMGPGGPGMITIPPSILNNPNIPNEIIHALQAGRLGSTVFVANLDYKVGWKKLKEVFSMAGVVVRADILEDKDGKSRGIGTVTFEQSIEAVQAISMFNGQLLFDRPMHVKMDERALPKGDFFPPERPQQLPHGLGGIGMGLGPGGQPIDANHLNKGIGMGNIGPAGMGMEGIGFGINKMGGMEGPFGGGMENMGRFGSGMNMGRINEILSNALKRGEIIAKQGGGGGGGSVPGIERMGPGIDRLGGAGMERMGAGLGHGMDRVGSEIERMGLVMDRMGSVERMGSGIERMGPLGLDHMASSIERMGQTMERIGSGVERMGAGMGFGLERMAAPIDRVGQTIERMGSGVERMGPAIERMGLSMERMVPAGMGAGLERMGPVMDRMATGLERMGANNLERMGLERMGANSLERMGLERMGANSLERMGPAMGPALGAGIERMGLAMGGGGGASFDRAIEMERGNFGGSFAGSFGGAGGHAPGVARKACQIFVRNLPFDFTWKMLKDKFNECGHVLYADIKMENGKSKGCGVVKFESPEVAERACRMMNGMKLSGREIDVRIDRNA |  |  |  |  | 8 | 5 | 6 | 5 |
| CALML5 (protein) AGELTPEEEAQYKKAFSAVDTDGNGTINAQELGAALKATGKNLSEAQLRKLISEVDSDGDGEISFQEFLTAAKKARAGLEDLQVAFRAFDQDGDGHITVDELRRAMAGLGQPLPQEELDAMIREADVDQDGRVNYEEFARMLAQE |  |  |  |  | 4 | 0 | 0 | 0 |
